Patent US20110166062A1 (INDIANA UNIVERSITY RESEARCH AND TECHNOLOGY, published 2011)
Bridges are numbered along the chain shown (N, C = ends). Primed or numbered codes have the meaning given here. Where no end group is shown, it is not given here. Side-chain parts run from the residue outwards. [ ]: non-standard residue; d: D form. maleimide = maleimide group on activated PEG, it reacts with the Cys thiol (Michael addition) to give a thioether linkage; PEG 40 kDa″ = polyethylene glycol of 40 kDa covalently attached to the side chain; PEG 40 kDa = PEG (40 kDa) covalently attached to Cys; Aib = CC(C)(N)C(=O)O

T1: GIP receptor (UniProt P48546 22-466)
T1 sequence (looked up): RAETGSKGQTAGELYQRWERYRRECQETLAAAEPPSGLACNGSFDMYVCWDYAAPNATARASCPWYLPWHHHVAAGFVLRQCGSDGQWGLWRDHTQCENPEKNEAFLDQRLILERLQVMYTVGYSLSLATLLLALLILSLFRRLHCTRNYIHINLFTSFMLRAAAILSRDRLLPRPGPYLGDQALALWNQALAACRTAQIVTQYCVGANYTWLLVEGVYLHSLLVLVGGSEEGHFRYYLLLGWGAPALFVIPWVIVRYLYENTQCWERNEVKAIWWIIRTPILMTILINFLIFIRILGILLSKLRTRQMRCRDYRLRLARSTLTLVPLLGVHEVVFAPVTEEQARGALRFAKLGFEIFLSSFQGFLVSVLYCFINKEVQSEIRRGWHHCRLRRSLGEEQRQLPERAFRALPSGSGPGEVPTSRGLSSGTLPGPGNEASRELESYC

T2: GIP receptor (UniProt P48546 22-466)
T2 sequence (looked up): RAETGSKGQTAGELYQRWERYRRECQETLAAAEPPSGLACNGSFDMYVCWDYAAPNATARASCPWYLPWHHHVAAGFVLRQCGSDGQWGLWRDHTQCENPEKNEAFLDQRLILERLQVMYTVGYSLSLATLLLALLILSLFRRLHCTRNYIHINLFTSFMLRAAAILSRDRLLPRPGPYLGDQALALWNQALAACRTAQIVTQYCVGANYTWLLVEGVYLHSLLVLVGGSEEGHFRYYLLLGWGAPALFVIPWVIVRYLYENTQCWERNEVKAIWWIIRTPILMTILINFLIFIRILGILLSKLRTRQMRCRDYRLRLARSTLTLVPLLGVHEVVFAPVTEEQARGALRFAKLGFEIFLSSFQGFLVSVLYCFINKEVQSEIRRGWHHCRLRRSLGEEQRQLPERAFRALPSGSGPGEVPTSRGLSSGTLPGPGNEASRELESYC


Columns and labels:
Experiment in all cases: cell-based or functional assay
[1] = molecular target: glucagon receptor (UniProt P47871 26-477, limits assumed)
Target sequence in this assay (P47871 26-477 limits assumed): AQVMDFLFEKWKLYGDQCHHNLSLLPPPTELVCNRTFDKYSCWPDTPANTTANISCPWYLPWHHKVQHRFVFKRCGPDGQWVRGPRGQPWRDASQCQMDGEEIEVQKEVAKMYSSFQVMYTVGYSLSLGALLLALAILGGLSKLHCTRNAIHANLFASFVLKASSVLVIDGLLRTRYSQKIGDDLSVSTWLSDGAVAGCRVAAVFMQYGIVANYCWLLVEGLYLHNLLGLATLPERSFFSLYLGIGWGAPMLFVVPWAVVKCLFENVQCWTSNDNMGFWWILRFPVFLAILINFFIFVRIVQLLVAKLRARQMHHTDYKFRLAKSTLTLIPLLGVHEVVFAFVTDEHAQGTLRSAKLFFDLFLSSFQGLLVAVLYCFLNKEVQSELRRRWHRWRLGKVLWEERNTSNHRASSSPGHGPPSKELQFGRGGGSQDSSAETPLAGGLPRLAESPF

[2] = molecular target: GLP-1 receptor (UniProt P43220 24-463, limits assumed)
[3] = molecular target: T1, GIP receptor
[4] = molecular target: glucagon receptor (UniProt P47871 26-477, limits assumed); remark: listed apart in the source
Target sequence in this assay (P47871 26-477 limits assumed): as above

[5] = molecular target: GLP-1 receptor (UniProt P43220 24-463, limits assumed); remark: listed apart in the source
[6] = molecular target: T2, GIP receptor; remark: listed apart in the source

Binder | EC50 [1] [nM] | relative activity [1] [%] | EC50 [2] [nM] | relative activity [2] [%] | EC50 [3] [nM] | relative activity [3] [%] | EC50, nM; Glucagon Receptor [4] [nM] | relative activity; Glucagon Receptor [4] [%] | EC50, nM; GLP-1 Receptor [5] [nM] | relative activity; GLP-1 Receptor [5] [%] | EC50, nM; GIP Receptor [6] [nM] | relative activity; GIP Receptor [6] [%]
Y[Aib]QGTFTSDYSIYLDEEAVRLFVNWLLAGGPSSGAPPPS-NH2 (N-terminus assumed; SMILES CC[C@H](C)[C@H](NC(=O)[C@H](CO)NC(=O)[C@H](Cc1ccc(O)cc1)NC(=O)[C@H](CC(=O)O)NC(=O)[C@H](CO)NC(=O)[C@@H](NC(=O)[C@H](Cc1ccccc1)NC(=O)[C@@H](NC(=O)CNC(=O)[C@H](CCC(N)=O)NC(=O)C(C)(C)NC(=O)[C@@H](N)Cc1ccc(O)cc1)[C@@H](C)O)[C@@H](C)O)C(=O)N[C@@H](Cc1ccc(O)cc1)C(=O)N[C@@H](CC(C)C)C(=O)N[C@@H](CC(=O)O)C(=O)N[C@@H](CCC(=O)O)C(=O)N[C@@H](CCC(=O)O)C(=O)N[C@@H](C)C(=O)N[C@H](C(=O)N[C@@H](CCCNC(=N)N)C(=O)N[C@@H](CC(C)C)C(=O)N[C@@H](Cc1ccccc1)C(=O)N[C@H](C(=O)N[C@@H](CC(N)=O)C(=O)N[C@@H](Cc1c[nH]c2ccccc12)C(=O)N[C@@H](CC(C)C)C(=O)N[C@@H](CC(C)C)C(=O)N[C@@H](C)C(=O)NCC(=O)NCC(=O)N1CCC[C@H]1C(=O)N[C@@H](CO)C(=O)N[C@@H](CO)C(=O)NCC(=O)N[C@@H](C)C(=O)N1CCC[C@H]1C(=O)N1CCC[C@H]1C(=O)N1CCC[C@H]1C(=O)N[C@@H](CO)C(N)=O)C(C)C)C(C)C) [mt-201] | 26.7 | 0.24 | 0.012 | 192 | 0.072 | 44.4 |  |  |  |  |  | 
Y[Aib]QGTFTSEYSKYLDEQAAKEFVNWLLAGGPSSGAPPPSC-NH2 (lactam 9-12, 16-20; not fully specified) [mt-209] | 4.66 | 0.9 | 2.34 | 1.33 | 1.05 | 1.42 |  |  |  |  |  | 
[Aib]QGTFTSDYSIYLDEQAAKEFVNWLLAG-NH2 (lactam 15-19; N-terminus assumed; SMILES CC[C@H](C)[C@H](NC(=O)[C@H](CO)NC(=O)[C@H](Cc1ccc(O)cc1)NC(=O)[C@H](CC(=O)O)NC(=O)[C@H](CO)NC(=O)[C@@H](NC(=O)[C@H](Cc1ccccc1)NC(=O)[C@@H](NC(=O)CNC(=O)[C@H](CCC(N)=O)NC(=O)C(C)(C)N)[C@@H](C)O)[C@@H](C)O)C(=O)N[C@@H](Cc1ccc(O)cc1)C(=O)N[C@@H](CC(C)C)C(=O)N[C@@H](CC(=O)O)C(=O)N[C@H]1CCC(=O)NCCCC[C@@H](C(=O)N[C@@H](CCC(=O)O)C(=O)N[C@@H](Cc2ccccc2)C(=O)N[C@H](C(=O)N[C@@H](CC(N)=O)C(=O)N[C@@H](Cc2c[nH]c3ccccc23)C(=O)N[C@@H](CC(C)C)C(=O)N[C@@H](CC(C)C)C(=O)N[C@@H](C)C(=O)NCC(N)=O)C(C)C)NC(=O)[C@H](C)NC(=O)[C@H](C)NC(=O)[C@H](CCC(N)=O)NC1=O) [mt-198] | 11.9 | 0.53 | 13.2 | 0.17 | 149 | 0.02 |  |  |  |  |  | 
Y[Aib]QGTFTSDYSIYLDEQAAKEFVNWLLAGKGKKNWLKHNITQC-NH2 (lactam 16-20) [mt-207] | 3.2 | 1.31 | 0.073 | 42.5 | 0.622 | 2.41 |  |  |  |  |  | 
Y[Aib]QGTFTSDYSIYLDEQAAKEFVNWLLAGGPSSGAPPPS-NH2 (N-terminus assumed; SMILES CC[C@H](C)[C@H](NC(=O)[C@H](CO)NC(=O)[C@H](Cc1ccc(O)cc1)NC(=O)[C@H](CC(=O)O)NC(=O)[C@H](CO)NC(=O)[C@@H](NC(=O)[C@H](Cc1ccccc1)NC(=O)[C@@H](NC(=O)CNC(=O)[C@H](CCC(N)=O)NC(=O)C(C)(C)NC(=O)[C@@H](N)Cc1ccc(O)cc1)[C@@H](C)O)[C@@H](C)O)C(=O)N[C@@H](Cc1ccc(O)cc1)C(=O)N[C@@H](CC(C)C)C(=O)N[C@@H](CC(=O)O)C(=O)N[C@@H](CCC(=O)O)C(=O)N[C@@H](CCC(N)=O)C(=O)N[C@@H](C)C(=O)N[C@@H](C)C(=O)N[C@@H](CCCCN)C(=O)N[C@@H](CCC(=O)O)C(=O)N[C@@H](Cc1ccccc1)C(=O)N[C@H](C(=O)N[C@@H](CC(N)=O)C(=O)N[C@@H](Cc1c[nH]c2ccccc12)C(=O)N[C@@H](CC(C)C)C(=O)N[C@@H](CC(C)C)C(=O)N[C@@H](C)C(=O)NCC(=O)NCC(=O)N1CCC[C@H]1C(=O)N[C@@H](CO)C(=O)N[C@@H](CO)C(=O)NCC(=O)N[C@@H](C)C(=O)N1CCC[C@H]1C(=O)N1CCC[C@H]1C(=O)N1CCC[C@H]1C(=O)N[C@@H](CO)C(N)=O)C(C)C) [mt-191] | 1.46 | 4.32 | 0.011 | 209 | 0.189 | 16.9 |  |  |  |  |  | 
Y[Aib]QGTFTSDYSIYLDKQAA[Aib]EFVNWLMNGGPSSGAPPPSK-NH2 (N-terminus assumed; SMILES CC[C@H](C)[C@H](NC(=O)[C@H](CO)NC(=O)[C@H](Cc1ccc(O)cc1)NC(=O)[C@H](CC(=O)O)NC(=O)[C@H](CO)NC(=O)[C@@H](NC(=O)[C@H](Cc1ccccc1)NC(=O)[C@@H](NC(=O)CNC(=O)[C@H](CCC(N)=O)NC(=O)C(C)(C)NC(=O)[C@@H](N)Cc1ccc(O)cc1)[C@@H](C)O)[C@@H](C)O)C(=O)N[C@@H](Cc1ccc(O)cc1)C(=O)N[C@@H](CC(C)C)C(=O)N[C@@H](CC(=O)O)C(=O)N[C@@H](CCCCN)C(=O)N[C@@H](CCC(N)=O)C(=O)N[C@@H](C)C(=O)N[C@@H](C)C(=O)NC(C)(C)C(=O)N[C@@H](CCC(=O)O)C(=O)N[C@@H](Cc1ccccc1)C(=O)N[C@H](C(=O)N[C@@H](CC(N)=O)C(=O)N[C@@H](Cc1c[nH]c2ccccc12)C(=O)N[C@@H](CC(C)C)C(=O)N[C@@H](CCSC)C(=O)N[C@@H](CC(N)=O)C(=O)NCC(=O)NCC(=O)N1CCC[C@H]1C(=O)N[C@@H](CO)C(=O)N[C@@H](CO)C(=O)NCC(=O)N[C@@H](C)C(=O)N1CCC[C@H]1C(=O)N1CCC[C@H]1C(=O)N1CCC[C@H]1C(=O)N[C@@H](CO)C(=O)N[C@@H](CCCCN)C(N)=O)C(C)C) [mt-356] |  |  |  |  |  |  | 0.0869 | 126 | 0.0048 | 224 | 0.053 | 25.7
YXEGTFTSDYSIYLDKQAAXEFVNWLLAGGPSSGAPPPSKC (C-terminal amide; acylation at position 40 of each monomer, no spacer; monomers linked via a PEG at C-terminal Cys residues) [mt-376] |  |  |  |  |  |  |  |  | 0.0106 |  | 0.0068 | 
YXEGTFTSDYSIYLDKQAAXEFVNWLLAGGPSSGAPPPSKC (C-terminal amide; acylation at position 40 of each monomer, no spacer; monomers linked via a PEG at C-terminal Cys residues) [mt-377] |  |  |  |  |  |  |  |  | 0.0076 |  | 0.0031 | 
Y[Aib]EGTFTSDYSIYLDEQAAKEFVNWLLAGKGKKNWLKHNITQC(PEG 40 kDa″)-NH2 (lactam 16-20) [mt-208] | 448 | 0.01 | 0.262 |  | 0.313 |  |  |  |  |  |  | 
Y[Aib]EGTFTSDYSIYLDEQAAKEFVNWLLAGKGKKNWLKHNITQC-NH2 (lactam 16-20) [mt-206] | 331 | 0.01 | 0.095 |  | 0.115 |  |  |  |  |  |  | 
Y[Aib]EGTFTSDYSIYLDEQAAKEFVNWLLAGGPSSGAPPPSC([maleimide-PEG 40 kDa])-NH2 (lactam 16-20) [mt-178] | 8.25 | 0.42 | 0.171 | 8.19 | 0.448 | 4.69 |  |  |  |  |  | 
Y[Aib]QGTFTSDYSIYLDEQAAKEFVC(PEG 40 kDa″)WLMNG-NH2 (lactam 16-20) [mt-186] | 1.58 | 2.22 | 0.5 | 2.8 | 15.2 | 0.14 |  |  |  |  |  | 
